Reference: the supplement of paper PMC12042874
± gives the uncertainty stated by the source.

Test: amyloid nucleation score (Sup35N fusion, yeast selection) (log enrichment); library NNK2; higher = more nucleation; inactive = no reads after selection
Outline: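 The nucleation score is a DiMSum log enrichment of output over input reads, centred on the mode score of non-aggregating sequences. Sequences under 100 input reads were excluded, and reads came from Illumina sequencing of plasmid inserts. Psi-negative yeast expressing Sup35N fused to peptides of 20 random codons were induced with 100 μM copper sulfate for 24 hours and grown 7 days at 30°C on medium lacking adenine and uracil. Random libraries had three technical output replicates.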

| Substance | amyloid nucleation score |
| --- | --- |
| DNDYTWIKFLKCGRADASGT | 0.157 ± 0.5 |
| DNFFIMALHSSREVDMKNRS | -1.53 ± 1 |
| DNKWILDRLIQHSLDHKVCR | -0.332 ± 0.63 |
| DNMDFMMCKINSGLNLTLSS | -2.33 ± 0.62 |
| DNVMLYKRKKQRPIMVPWSA | -0.488 ± 0.35 |
| DPLPMSYRVYSARSW | -0.81 ± 1 |
| DPNLGLSTW | 0.47 ± 0.34 |
| DPNLPETVTGVIMFASVGGA | -0.13 ± 0.76 |
| DPSGYHVSFHSGDGGCEYC | 2.71 ± 0.085 |
| DQAHRGSCDVS | 0.214 ± 0.63 |
| DQKTMTTVL | 0.368 ± 0.45 |
| DRAVRQFIFLVYGSSLDWDI | 0.044 ± 0.79 |
| DREFLGDCWVLAELSKTRLI | 3.24 ± 0.093 |
| DRFTAGLIFCMLCLGRYVCM | inactive |
| DRGYVTD | 1.14 ± 0.4 |
| DRICRVDIYDVRDQSYTFSG | -0.279 ± 0.29 |
| DRRGQQVLGPACRGCWFWPD | 0.305 ± 1 |
| DRRWHRALQN | 0.137 ± 0.37 |
| DRWMTGMDAVYLHRRGPLFF | 0.13 ± 0.8 |
| DRYSTCSNRKSTRYLFMTFA | 0.151 ± 0.36 |
| DSAGASFNSCCGAE | 0.122 ± 1.1 |
| DSCGLCRYGGEMFRKFKFIS | inactive |
| DSDNIPNHTYMILFGIQFHS | -0.311 ± 0.65 |
| DSFFAEMDNLNSGRTPFKGT | inactive |
| DSISFNPYRMLRDNYLLHVC | 1.9 ± 0.13 |
| DSISNISDPCGFLGQESWVN | 4.83 ± 0.063 |

| Substance | amyloid nucleation score |
| --- | --- |
| DSNRMNVNRTPDGVLGGCGT | 0.468 ± 0.38 |
| DSSLKLGNTETFIDRSMLCN | -0.407 ± 0.4 |
| DSSRRM | -1.43 ± 0.78 |
| DSSYVSVHRFCNFGYLIFCF | 7.734 ± 0.064 |
| DSTFKYYRTYLKERR | -0.357 ± 0.41 |
| DSVSTVVFII | 4.47 ± 0.045 |
| DSWFEQCVVFWLKTNCPQQE | -0.069 ± 0.25 |
| DTDDVNHYSFTPRALSSGFI | inactive |
| DTILWRSSHAEGTEAWHMGF | 1.28 ± 0.38 |
| DTRVSFRFMVTYLIMVYRFL | 0.774 ± 0.22 |
| DTYDSCMSSVMISFR | 0.343 ± 0.51 |
| DVAIRVYYMYMYERYVTRLF | inactive |
| DVFWYDATTRYGGRCRGQIS | 1.11 ± 0.31 |
| DVLLVLHVIWCICYPLGVVS | 0.429 ± 0.4 |
| DVMSSPGVSFITTVAFDVC | 0.382 ± 0.8 |
| DVREFSSDYSQVGVEVLVFL | 0.373 ± 0.42 |
| DVRRLLFLLLGQ | -0.796 ± 0.4 |
| DVSESRSTVDGSDNEGWLTD | 0.299 ± 0.42 |
| DWRLARLSSVRFLNGIDCDF | 0.015 ± 0.56 |
| DWRRWM | 0.422 ± 0.5 |
| DWSVKCGVMERI | -0.295 ± 0.4 |
| DYDGTPGCVEKSTIIFMV | inactive |
| DYFAIRWGQVT | inactive |
| DYGWKLMVKVDWFLNGHQ | 4.39 ± 0.048 |
| DYLVRGQEY | 0.357 ± 0.43 |
| DYLVSMTVNSASLFRYIERR | 5.209 ± 0.029 |

| Substance | amyloid nucleation score |
| --- | --- |
| DYQGGCSILTSEDEPYEVAC | 1.56 ± 0.44 |
| DYSFGMSCLEDIFREHEILG | -0.879 ± 1.1 |
| DYWLMEWMRYVHRLVGNCWY | -0.959 ± 1.1 |
| EACRLYHRVVKAFGEARCSV | 0.518 ± 0.28 |
| EADLYSTAIQLDK | -0.313 ± 0.44 |
| EARILIKLLI | 2.58 ± 0.091 |
| EAYVHGMR | 1.07 ± 0.25 |
| ECVDCESIEMEAVSC | 1.26 ± 0.16 |
| ECYETRTSMEY | -0.102 ± 0.56 |
| EDDVSYNSFSGQASLWKFPK | -0.818 ± 0.56 |
| EDIWEMRSLHLWLSCSGWTD | 2.27 ± 0.15 |
| EDRNSAFAWSSH | 3.54 ± 0.14 |
| EDSPKFKGGPGIYHSVVLVG | 0.394 ± 0.27 |
| EDWNPSTMFVRFWYNSACWY | 0.204 ± 0.6 |
| EFFALMDARVFVSVMLQEVD | -0.268 ± 0.63 |
| EFSSTTSALGKDVRVFNFAI | -1.26 ± 0.62 |
| EFWVLNYVITNLHWQTYSIM | -1.29 ± 1 |
| EGLQFRCLRNSEILVCGYFS | 0.466 ± 0.54 |
| EGSNYYTMVV | inactive |
| EHLGIIAIRCAQIHKFLPEL | 0.539 ± 0.36 |
| EIHYMCELIMQWVYSGLTSR | 0.607 ± 0.35 |
| EIMCLHKNALCFQCSTSGCA | 7.52 ± 0.046 |
| EITFLCSGKSDSDMYVGFAS | 2.08 ± 0.072 |
| EIWRFLQHRGIYYFFWSFEK | inactive |
| EKFYLDLG | -0.006 ± 0.54 |
| EKLWIMLTLICNIVRSPSYK | -0.515 ± 1.1 |

| Substance | amyloid nucleation score |
| --- | --- |
| EKYRGSLMSRLAKMWNCCVT | 1.04 ± 0.27 |
| ELFRDNTGSSVVGNSRSSDA | 0.438 ± 0.17 |
| ELFTLGLEGALEVNELKLKY | 0.782 ± 0.18 |
| ELKVMGYMCPL | 0.801 ± 0.82 |
| ELTGYT | -0.388 ± 0.56 |
| EMVSLCSSRFRRMMGACLGT | 1.39 ± 0.21 |
| EMYKQVRFVVIGIIC | 1.21 ± 0.24 |
| ENCLESWTCI | -1.08 ± 0.78 |
| ENIISERAFS | inactive |
| ENLYGFWYLTRCRMF | -0.096 ± 0.39 |
| ENQPVELSTTRDTRAGMSDT | inactive |
| ENSFLVRKTSH | -0.262 ± 0.36 |
| EPCNTNIK | -0.553 ± 0.29 |
| EPFSNEWWLMGVRPHLICRV | 0 ± 0.37 |
| EPMKSFSHNCLTQIST | -0.557 ± 1.1 |
| ERSVDYSLTL | -0.43 ± 0.45 |
| ERVNKFLWGGFSERLRLMSQ | 0.51 ± 0.65 |
| ERYIRF | 0.187 ± 0.32 |
| ESFAFELTVLHIS | 1.11 ± 0.38 |
| ESGCRHYLCLGATTIVMDS | 6.619 ± 0.049 |
| ESGFGMSSNWKPERNFW | inactive |
| ESGVHWENTEVKGIYSYLCR | inactive |
| ESISTVITLRGLMLITTGYN | 4.12 ± 0.097 |
| ESLKINASSEQSRLVTRDTQ | -0.191 ± 0.61 |
| ESYLFAWDNGMFYIANDLEF | 0.494 ± 0.8 |
| ETFNCNFVWL | 4.83 ± 0.1 |

| Substance | amyloid nucleation score |
| --- | --- |
| ETLSQIMFYVKIIAYDCRNP | 2.66 ± 0.13 |
| ETPIIRDQYKLGYNLRTSVL | inactive |
| ETRGNRPF | 0.88 ± 0.33 |
| ETSFSTVRRQILSLLRLVSS | 0.326 ± 0.33 |
| ETVDSESFSGCGIVFLRGSN | -0.908 ± 0.78 |
| EVDVIS | -0.885 ± 0.64 |
| EVGILVTVVYSGKWKVSRCM | 1.87 ± 0.48 |
| EVSTWQLPMNTDTVEGGSVV | 1.16 ± 0.25 |
| EVWRWIFNHGLPRHAGHIVA | 0.312 ± 0.43 |
| EVWYSPDLTLLVYPTPR | 1.46 ± 0.4 |
| EVYYTSMERCGG | 1.36 ± 0.22 |
| EWDVLGLRGRANN | 1.36 ± 0.35 |
| EWNAKLWSLPSGATGCKSQS | 1.16 ± 0.2 |
| EYIYLNLYISDNLYSSGKSG | 2.88 ± 0.16 |
| EYLTNVMVRGDYFGWDHAIA | -0.949 ± 0.63 |
| EYMPP | 0.924 ± 0.16 |
| EYTHRSERFIMGNVISKVRM | 0.255 ± 0.49 |
| EYYLSVYSYYCYCLTCMFVI | 3.46 ± 0.15 |
| FACIGGVLHAGGGVGAIGA | 0.69 ± 0.42 |
| FAFVYSNHFGQMCYRNVCLS | inactive |
| FAQPHGCNKMCFCSLRFQYL | 3.21 ± 0.12 |
| FASLFPKAPERTEVSEPYRR | -0.76 ± 0.5 |
